The values below come from publication PMC5648196, “The transcriptional regulator LysG (Rv1985c) of Mycobacterium tuberculosis activates lysE (Rv1986) in a lysine-dependent manner”.

The target of series [1] is T1, LysG(Mt) (Mycobacterium tuberculosis) (UniProt P9WMF5).
T1 sequence: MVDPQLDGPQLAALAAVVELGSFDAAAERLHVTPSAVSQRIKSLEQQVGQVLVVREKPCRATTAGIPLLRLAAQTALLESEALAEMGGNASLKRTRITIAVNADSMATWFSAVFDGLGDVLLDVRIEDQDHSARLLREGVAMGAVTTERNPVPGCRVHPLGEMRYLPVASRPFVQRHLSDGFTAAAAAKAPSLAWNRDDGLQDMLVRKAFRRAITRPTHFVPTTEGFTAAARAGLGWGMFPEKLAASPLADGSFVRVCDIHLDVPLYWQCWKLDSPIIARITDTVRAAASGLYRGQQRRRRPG
The experiment in a line: EMSA. (In EMSA bound probe runs differently from free probe, usually more slowly.)

Series [2] addresses T2, LysG(Mt) (Mycobacterium tuberculosis, UniProt P9WMF5 1-303).
T2 sequence: T1 sequence
The series can be described thus: EMSA; 200 pmole LysG, 10 fmole DNA. Particulars: protein: recombinant, tags: His6 (pQE30-LysG(Mt)x6His), chain copies: 4, blunt.

“TTCAGACCGGCACGTTTCAGAGCGGTGGGGATGTCCCGACGTGCGATCCGACAGGGGTTCGCAGGGTCCGCAAAAAACATAGTGAACGCCAGAAAGCCGAATGGGAGTACAAGGCGATGCCGGT (double strand) [oligonucleotide V (fadD26 upstream)]”: the binding result in series [1] is recorded as “no binding”.
On the same count and under the same terms, the entry for “CGCTGCGGTCATTGTGTTCCTCTTAGTCGTTCCGAAAGTTGTTCCAACAACTCGGCTTCGGTCAGTTCGTGGTAGGAGTCGGTGGCTTGCTGGGTTGCGACTGCGGTTGCCCCAATTTCGAGGAGCTCAGGC (double strand) [oligonucleotide VII (ppsC upstream)]” is “no binding”.

B1: oligonucleotide IV (dsDNA)
DNA 1: CGCACTGCACATTAATAATGCTAATGTAAATGAAGAATTATTAGCTATACTGAC
DNA 2: GTCAGTATAGCTAATAATTCTTCATTTACATTAGCATTATTAATGTGCAGTGCG
As for B1, the binding result in series [2] (label: 5'-biotin on reverse strand (838)) was “binds”.

B2: oligonucleotide III (dsDNA)
DNA 1: AAATGAAGAATTATTAGCTATACTGACCCATACAAACTGCCTAGTGTCGATTGC
DNA 2: GCAATCGACACTAGGCAGTTTGTATGGGTCAGTATAGCTAATAATTCTTCATTT
Consider B2, for which the binding result in series [2] (label: 5'-biotin on reverse strand (836)) is “no binding”.

B3: oligonucleotide II (dsDNA)
DNA 1: CTCAGGTGTAGACCATCTGCGGAGCGTCGCACTGCACATTAATAATGCTAATGT
DNA 2: ACATTAGCATTATTAATGTGCAGTGCGACGCTCCGCAGATGGTCTACACCTGAG
With B3, the binding result in series [2] (label: 5'-biotin on reverse strand (834)) was “no binding”.
